# What was measured:
# [1] = test system: choline transporter; test: Brain uptake of Cy5.5-labeled n(Nimo) after pre-injection of choline-transporter inhibitor; assay type: in vivo, mice; details: 1.25, 2.5 or 5 μg/kg intraperitoneal 20 mins before n(Nimo); 4 hours after injection
# Procedure: The BBB penetration of the nanocapsules can be attributed to their transcytosis mediated by the choline and acetylcholine receptors. Glioma-bearing mice were intraperitoneally injected with 1.25, 2.5 or 5 μg/kg of choline-transporter inhibitor, hemicholinium-3 (HC-3), 20 mins prior to the injection of Cy5.5-labeled n(Nimo). FIGS. 8A and 8B depict the in-vivo bioluminescent images of the orthotopic U87-EGFRwt glioma xenograft mice and the ex-vivo fluorescent images of the brains 4 hours after injection. […] This method provides an effective antibody delivery strategy for brain tumor treatment.
# [2] = Brain fluorescence after intravenous injection of fluorescence-labeled BSA conjugates; assay type: in vivo, Balb/c mice; details: 5.0 mg/kg intravenous, one day after injection
# Procedure: Protein conjugates were synthesized by conjugating polymer, poly(2-methacryloyloxyethyl phosphorylcholine) (PMPC), to fluorescence-labeled bovine serum albumin (BSA). The BSA conjugates were injected to Balb/c mice via intravenously at a dose of 5.0 mg/kg. One date after the intravenous injection, fluorescence intensity of the mouse brains was compared.
# [3] = set-up: species or system rhesus macaque monkey; details: rhesus monkey, in vivo
# Procedure: To evaluate the CNS delivery efficiency, Rituximab nanoparticles were administrated to non-human primates (rhesus macaque monkey) at a dose of 5.0 mg/kg via intravenous injection. After intravenous administration, plasma was collected at 1, 2, 3, 5, 7, 10, 14 and 17 days post injection, and CSF was collected at day 3, 10 and 17. […] In sharp contrast, Rituximab in CSF was undetectable by week 2 for the monkey administrated with native Rituximab.
compound,measurement,setting,value
"C[N+]1(C)CCOC(O)(c2ccc(-c3ccc(C4(O)C[N+](C)(C)CCO4)cc3)cc2)C1.[Br-].[Br-] (centres unmarked) [HC-3, hemicholinium-3]",effect on fluorescent intensity of glioma-bearing brain after Cy5.5-labeled n(Nimo),[1],significantly reduces the fluorescent intensity
BSA conjugates: poly(2-methacryloyloxyethyl phosphorylcholine) (PMPC) conjugated to fluorescence-labeled bovine serum albumin,brain fluorescence intensity relative to mice injected with PBS,[2],6 times
same,brain fluorescence intensity relative to mice injected with native BSA,[2],4 times
Rituximab,Rituximab in CSF,[3],undetectable
same,CSF concentration compared with n-Rituximab,[3]; iv,significantly lower CSF concentration
